Key:
[1] = biological target: recombinant human IL-2 (human) (UniProt P60568); experiment: cell-based or functional assay
[2] = biological target: H520C9sFv-hIL-2 fusion protein (human) (UniProt P60568); experiment: cell-based or functional assay
[3] = biological target: p185, the human HER-2/neu (c-erbB2) proto-oncogene product (human) (UniProt P04626); experiment: Scatchard analysis on SK-Br-3 cells

B1: mouse anti-human IL-2 mAb MAB202 (antibody, from another filing, V domains shown)
VH: DVRLVESGGGLVKPGGSLKLSCAAYGFTFSSYTLAWVRQTPEKRLEWVAAIDSSSYTYSPDTVRGRFTISRDNAKNTLYLQMSSLKSEDTAMYYCTRDSNWDALDYWGQGTSVIVSS
VL: DIVMTQSQKFMSTSVGDRVSVTCKASQNVGTNVGWYQQKPGQSPKALIYSASFRYSGVPDRFTGSGSGTDFSLTISNVKSEDLAEYFCQQYYTYPYTFGGGTKLEIK
A 50% inhibition of [^3H]-thymidine incorporation in CTLL-2 cells (Neutralization Dose 50) for 2 ng/ml rhIL-2 [1] of 0.076 µg/mL and a 50% inhibition of [^3H]-thymidine incorporation in CTLL-2 cells (Neutralization Dose 50) for the same dose of H520C9sFv-hIL-2 [2] of 0.128 µg/mL were found for B1 in this work.

B2: murine monoclonal antibody 520C9 (antibody, from another filing, V domains shown)
VH: EIQLVQSGPELKKPGETVKISCKASGYTFANYGMNWMKQAPGKGLKWMGWINTYTGQSTYADDFKERFAFSLETSATTAHLQINNLRNEDSATYFCARRFGFAYWGQGTLVSVSA
VL: DIQMTQSPSSLSASLGERVSLTCRASQDIGNSLTWLQQEPDGTIKRLIYATSSLDSGVPKRFSGSRSGSDYSLTISSLESEDFVVYYCLQYAIFPYTFGGGTNLEIK
A Ka [3] of 3.5e+08 M⁻¹ was found for B2 in this work.

B3: proteolytically cleaved Fab fragment of 520C9 (Fab, from another filing, V domains shown)
VH: EIQLVQSGPELKKPGETVKISCKASGYTFANYGMNWMKQAPGKGLKWMGWINTYTGQSTYADDFKERFAFSLETSATTAHLQINNLRNEDSATYFCARRFGFAYWGQGTLVSVSA
VL: DIQMTQSPSSLSASLGERVSLTCRASQDIGNSLTWLQQEPDGTIKRLIYATSSLDSGVPKRFSGSRSGSDYSLTISSLESEDFVVYYCLQYAIFPYTFGGGTNLEIK
A Ka [3] of 6.7e+07 M⁻¹ was found for B3 in this work.

Source: patent publication US20020041865A1
